Results on four molecules are retold here after publication PMC8307404, “Crystal Structure-Guided Design of Bisubstrate Inhibitors and Photoluminescent Probes for Protein Kinases of the PIM Family” (Molecules, 2021).

Square brackets hold non-standard residues; d marks the D form. Peptide text beside a SMILES is read from it. * marks the point of attachment. X3 = O=C(CCCCCNCc1nc2c(sc3cc(Br)cnc32)c(=O)[nH]1)*

Assay in all cases: Kinase profiling (radiometric filter-binding)
One data set concerns the target ABL (Homo sapiens, UniProt P00519). Format: biochemical. The following applies: 1 µM inhibitor, read-out: Residual activity, %. The gist of the method:
(§1)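 Human kinases were tested in a radiometric filter-binding panel with ATP at or below each enzyme's KM. Inhibitors were present at a final concentration of 1 µM, and residual activity was reported as a percentage of the uninhibited control.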

Another data set deals with BRK (Homo sapiens, UniProt Q13882). Format: biochemical. The settings on record: 1 µM inhibitor, read-out: Residual activity, %. The gist of the method: as §1
BRK, sequence (Q13882 whole entry): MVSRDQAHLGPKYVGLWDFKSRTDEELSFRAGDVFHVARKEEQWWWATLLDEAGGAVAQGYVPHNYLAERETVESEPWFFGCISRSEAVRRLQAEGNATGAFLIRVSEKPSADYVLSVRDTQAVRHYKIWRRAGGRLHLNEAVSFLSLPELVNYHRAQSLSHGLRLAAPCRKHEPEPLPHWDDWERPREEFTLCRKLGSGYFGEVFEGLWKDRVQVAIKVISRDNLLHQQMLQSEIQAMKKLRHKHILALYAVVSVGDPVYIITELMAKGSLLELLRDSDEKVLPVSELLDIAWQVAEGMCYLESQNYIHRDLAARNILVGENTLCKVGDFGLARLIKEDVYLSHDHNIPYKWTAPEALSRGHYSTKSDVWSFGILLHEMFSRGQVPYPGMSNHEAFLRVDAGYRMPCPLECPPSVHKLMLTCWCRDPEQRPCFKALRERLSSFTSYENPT
For a further data set, the target named is BTK (Homo sapiens, UniProt Q06187). It is filed as biochemical. The settings on record: 1 µM inhibitor, read-out: Residual activity, %. The procedure, abridged: as §1
BTK, sequence (Q06187 whole entry): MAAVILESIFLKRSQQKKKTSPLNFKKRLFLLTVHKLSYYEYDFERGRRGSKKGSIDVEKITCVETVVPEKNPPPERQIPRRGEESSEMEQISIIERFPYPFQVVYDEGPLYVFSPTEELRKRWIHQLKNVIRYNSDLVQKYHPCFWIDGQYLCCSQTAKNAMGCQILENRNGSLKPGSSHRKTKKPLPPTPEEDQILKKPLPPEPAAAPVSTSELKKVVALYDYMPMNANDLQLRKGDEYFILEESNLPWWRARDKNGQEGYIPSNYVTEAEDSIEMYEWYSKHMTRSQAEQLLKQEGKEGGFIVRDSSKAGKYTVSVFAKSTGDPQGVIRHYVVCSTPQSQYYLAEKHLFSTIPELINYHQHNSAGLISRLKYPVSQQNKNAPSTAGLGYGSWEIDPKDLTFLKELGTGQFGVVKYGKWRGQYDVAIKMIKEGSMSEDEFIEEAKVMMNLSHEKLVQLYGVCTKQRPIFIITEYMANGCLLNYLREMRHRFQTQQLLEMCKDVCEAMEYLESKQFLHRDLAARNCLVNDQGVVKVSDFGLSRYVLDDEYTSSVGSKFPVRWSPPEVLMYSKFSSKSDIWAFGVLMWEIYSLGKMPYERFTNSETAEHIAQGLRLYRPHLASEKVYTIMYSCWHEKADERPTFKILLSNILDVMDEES
For another data set, the target named is HER4 (Homo sapiens, UniProt Q15303). Format: biochemical. The settings on record: HER4, 1 µM inhibitor; read-out: Residual activity, %. The procedure, abridged: as §1
A further data set has as its target MARK1 (Homo sapiens, UniProt Q9P0L2). Format: biochemical. The settings on record: MARK1, 1 µM inhibitor; read-out: Residual activity, %. The procedure, abridged: as §1
Another data set has as its target MARK3 (Homo sapiens, UniProt P27448). Format: biochemical. The following applies: MARK3, 1 µM inhibitor; read-out: Residual activity, %. The gist of the method:
as §1

A further data set concerns the target MINK1 (Homo sapiens, UniProt Q8N4C8). It is filed as biochemical. The settings on record: MINK1, 1 µM inhibitor; read-out: Residual activity, %. The procedure, abridged: as §1
The target in a further data set is MSK1 (Homo sapiens, UniProt O75582). It is filed as biochemical. The settings on record: MSK1, 1 µM inhibitor; read-out: Residual activity, %. The procedure, abridged: as §1
In another data set the target is MST4 (Homo sapiens, UniProt Q9P289). Format: biochemical. The following applies: MST4, 1 µM inhibitor; read-out: Residual activity, %. The procedure, abridged:
as §1

Another data set deals with PAK4 (Homo sapiens, UniProt O96013). Format: biochemical. The settings on record: PAK4, 1 µM inhibitor; read-out: Residual activity, %. The procedure, abridged:
as §1

For the next data set, the target named is PAK5 (Homo sapiens, UniProt Q9P286). It is filed as biochemical. The settings on record: PAK5, 1 µM inhibitor; read-out: Residual activity, %. The procedure, abridged: as §1
PAK5, sequence (Q9P286 whole entry): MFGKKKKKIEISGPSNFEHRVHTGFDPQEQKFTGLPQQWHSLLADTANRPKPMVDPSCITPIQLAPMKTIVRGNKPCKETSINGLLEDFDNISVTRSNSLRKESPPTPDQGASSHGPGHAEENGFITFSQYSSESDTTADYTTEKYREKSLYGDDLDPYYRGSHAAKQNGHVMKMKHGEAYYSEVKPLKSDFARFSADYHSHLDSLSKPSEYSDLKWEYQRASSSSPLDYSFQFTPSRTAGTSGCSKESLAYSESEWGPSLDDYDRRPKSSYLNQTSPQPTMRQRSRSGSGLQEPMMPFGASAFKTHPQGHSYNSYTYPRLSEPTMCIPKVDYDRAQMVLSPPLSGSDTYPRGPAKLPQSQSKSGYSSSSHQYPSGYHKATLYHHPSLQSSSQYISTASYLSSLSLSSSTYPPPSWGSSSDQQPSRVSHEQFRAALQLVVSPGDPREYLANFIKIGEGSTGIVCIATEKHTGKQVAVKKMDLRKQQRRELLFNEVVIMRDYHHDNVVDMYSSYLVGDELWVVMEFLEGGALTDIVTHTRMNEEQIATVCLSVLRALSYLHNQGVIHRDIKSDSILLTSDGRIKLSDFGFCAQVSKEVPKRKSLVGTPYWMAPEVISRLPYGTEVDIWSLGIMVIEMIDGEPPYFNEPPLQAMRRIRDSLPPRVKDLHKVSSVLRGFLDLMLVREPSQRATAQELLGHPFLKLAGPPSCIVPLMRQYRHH
The next data set concerns the target PIM2 (Homo sapiens, UniProt Q9P1W9). It is filed as biochemical. The following applies: PIM2, 1 µM inhibitor; read-out: Residual activity, %. The gist of the method:
as §1

A further data set addresses T1, PKD1 (Homo sapiens, UniProt Q15139).
T1 sequence (Q15139 1-912): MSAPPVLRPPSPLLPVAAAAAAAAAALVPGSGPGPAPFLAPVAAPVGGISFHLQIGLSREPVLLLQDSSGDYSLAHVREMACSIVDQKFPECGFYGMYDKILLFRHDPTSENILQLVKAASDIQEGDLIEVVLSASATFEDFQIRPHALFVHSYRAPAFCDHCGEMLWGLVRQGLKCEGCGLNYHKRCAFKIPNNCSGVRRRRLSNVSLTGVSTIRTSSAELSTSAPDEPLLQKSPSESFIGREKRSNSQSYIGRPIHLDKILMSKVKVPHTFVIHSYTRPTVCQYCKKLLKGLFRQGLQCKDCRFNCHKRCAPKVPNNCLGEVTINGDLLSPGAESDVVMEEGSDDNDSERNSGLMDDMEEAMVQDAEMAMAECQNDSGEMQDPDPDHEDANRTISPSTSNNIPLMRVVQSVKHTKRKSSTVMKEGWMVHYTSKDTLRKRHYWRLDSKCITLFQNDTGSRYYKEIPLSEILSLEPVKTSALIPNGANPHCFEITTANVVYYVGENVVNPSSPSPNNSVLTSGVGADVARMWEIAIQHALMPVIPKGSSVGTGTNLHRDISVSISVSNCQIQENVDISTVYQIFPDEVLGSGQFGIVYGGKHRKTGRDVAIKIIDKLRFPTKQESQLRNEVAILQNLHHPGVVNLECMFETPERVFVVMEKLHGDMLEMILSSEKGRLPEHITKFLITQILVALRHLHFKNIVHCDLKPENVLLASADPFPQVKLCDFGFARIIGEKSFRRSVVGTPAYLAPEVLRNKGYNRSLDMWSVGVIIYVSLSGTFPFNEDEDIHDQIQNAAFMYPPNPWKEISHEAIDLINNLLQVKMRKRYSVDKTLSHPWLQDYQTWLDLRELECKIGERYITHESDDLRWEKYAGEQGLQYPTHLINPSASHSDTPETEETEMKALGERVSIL
Format: biochemical. The settings on record: PKD1, 1 µM inhibitor; read-out: Residual activity, %. The gist of the method: as §1

The target of a further data set is T2, TSSK1 (Homo sapiens, UniProt Q9BXA7).
T2 sequence (Q9BXA7 1-367): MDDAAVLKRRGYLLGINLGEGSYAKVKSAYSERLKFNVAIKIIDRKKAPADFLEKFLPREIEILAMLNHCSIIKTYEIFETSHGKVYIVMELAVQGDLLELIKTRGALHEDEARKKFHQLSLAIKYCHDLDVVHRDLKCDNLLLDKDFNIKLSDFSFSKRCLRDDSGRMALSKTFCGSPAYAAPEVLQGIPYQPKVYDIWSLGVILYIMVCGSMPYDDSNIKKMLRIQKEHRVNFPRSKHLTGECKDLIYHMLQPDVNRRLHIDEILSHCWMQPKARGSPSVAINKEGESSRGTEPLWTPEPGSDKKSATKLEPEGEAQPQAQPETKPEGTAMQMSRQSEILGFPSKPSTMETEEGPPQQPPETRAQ
It is filed as biochemical. The following applies: TSSK1, 1 µM inhibitor; read-out: Residual activity, %. The procedure, abridged:
as §1

A further data set deals with AMPK. It is filed as biochemical, human. The settings on record: 1 µM inhibitor. As to the method:
(§2) Kinase selectivity profiling was performed using the commercial service provided by the MRC PPU International Centre for Kinase Profiling (Dundee, UK) using a radiometric filter-binding assay. Kinases used for analysis were of human origin. The ATP concentration applied for inhibition measurements was at or below the ATP KM value of the particular PK. ARC-3125 and ARC-3126 were screened against 139 PKs, whereas compounds 1, 2, and 8 were screened against 140 PKs. The final total concentration of inhibitors in the selectivity panel was 1 µM. Residual activities were expressed as the percentage of retained activity compared to the control without inhibitor.

In another data set the test system is p38 MAPK. Format: biochemical, human. The settings on record: 1 µM inhibitor. How it is done:
as §2

In another data set the test system is PINK. It is filed as biochemical, human. The settings on record: 1 µM inhibitor. As to the method: as §2
Where [1] appears, read: fourth of four lines (Greek letter lost).
Setting [2] is: third of four lines (Greek letter lost).

MARK1, sequence (Q9P0L2 whole entry): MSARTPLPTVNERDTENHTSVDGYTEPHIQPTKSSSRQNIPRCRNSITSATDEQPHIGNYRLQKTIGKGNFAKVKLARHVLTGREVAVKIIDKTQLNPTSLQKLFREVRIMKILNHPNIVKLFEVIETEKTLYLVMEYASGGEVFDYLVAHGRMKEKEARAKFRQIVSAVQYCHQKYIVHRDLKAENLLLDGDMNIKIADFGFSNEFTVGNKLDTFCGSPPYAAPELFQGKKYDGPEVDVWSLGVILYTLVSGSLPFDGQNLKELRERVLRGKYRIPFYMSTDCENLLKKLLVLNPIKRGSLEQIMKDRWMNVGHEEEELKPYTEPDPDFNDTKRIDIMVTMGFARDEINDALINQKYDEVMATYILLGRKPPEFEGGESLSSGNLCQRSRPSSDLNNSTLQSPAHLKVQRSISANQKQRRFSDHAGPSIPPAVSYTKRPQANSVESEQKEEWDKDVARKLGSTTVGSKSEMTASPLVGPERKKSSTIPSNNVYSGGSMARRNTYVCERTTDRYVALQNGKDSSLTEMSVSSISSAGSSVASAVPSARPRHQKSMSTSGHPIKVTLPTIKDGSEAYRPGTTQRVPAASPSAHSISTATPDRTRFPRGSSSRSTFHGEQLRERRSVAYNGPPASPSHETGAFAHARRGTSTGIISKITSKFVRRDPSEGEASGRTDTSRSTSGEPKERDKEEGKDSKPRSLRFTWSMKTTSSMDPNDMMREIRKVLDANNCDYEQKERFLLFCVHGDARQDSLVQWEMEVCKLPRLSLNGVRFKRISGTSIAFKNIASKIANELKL
ABL, sequence (P00519 whole entry): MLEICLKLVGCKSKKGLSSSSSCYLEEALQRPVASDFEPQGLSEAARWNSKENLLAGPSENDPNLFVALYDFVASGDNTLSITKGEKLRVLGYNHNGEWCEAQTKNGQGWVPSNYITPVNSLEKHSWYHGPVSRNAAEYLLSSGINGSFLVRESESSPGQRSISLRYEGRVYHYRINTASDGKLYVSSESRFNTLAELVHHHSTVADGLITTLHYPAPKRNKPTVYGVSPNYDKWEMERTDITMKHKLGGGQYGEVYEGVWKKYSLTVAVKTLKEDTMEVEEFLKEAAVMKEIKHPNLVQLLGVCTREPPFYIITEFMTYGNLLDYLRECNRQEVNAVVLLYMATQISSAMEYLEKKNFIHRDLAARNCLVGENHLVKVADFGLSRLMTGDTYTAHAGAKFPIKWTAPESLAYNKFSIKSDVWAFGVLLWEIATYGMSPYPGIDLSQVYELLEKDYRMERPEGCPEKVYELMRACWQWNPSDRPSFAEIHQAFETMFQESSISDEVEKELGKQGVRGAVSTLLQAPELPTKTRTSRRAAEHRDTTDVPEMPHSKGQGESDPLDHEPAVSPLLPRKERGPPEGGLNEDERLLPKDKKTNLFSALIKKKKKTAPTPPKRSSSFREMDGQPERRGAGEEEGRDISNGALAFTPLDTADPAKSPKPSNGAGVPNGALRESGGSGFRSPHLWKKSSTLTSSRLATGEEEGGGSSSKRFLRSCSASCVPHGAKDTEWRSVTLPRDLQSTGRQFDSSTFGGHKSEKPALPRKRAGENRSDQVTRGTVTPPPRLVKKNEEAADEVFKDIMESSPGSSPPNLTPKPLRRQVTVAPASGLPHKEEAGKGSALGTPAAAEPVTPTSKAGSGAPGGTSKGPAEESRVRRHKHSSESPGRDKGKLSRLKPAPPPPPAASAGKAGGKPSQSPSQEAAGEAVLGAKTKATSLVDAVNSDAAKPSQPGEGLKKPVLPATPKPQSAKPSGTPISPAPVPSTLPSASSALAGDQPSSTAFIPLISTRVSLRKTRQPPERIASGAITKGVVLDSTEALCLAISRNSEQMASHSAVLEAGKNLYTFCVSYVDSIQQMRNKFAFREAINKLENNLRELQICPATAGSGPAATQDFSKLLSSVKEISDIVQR
MINK1, sequence (Q8N4C8 whole entry): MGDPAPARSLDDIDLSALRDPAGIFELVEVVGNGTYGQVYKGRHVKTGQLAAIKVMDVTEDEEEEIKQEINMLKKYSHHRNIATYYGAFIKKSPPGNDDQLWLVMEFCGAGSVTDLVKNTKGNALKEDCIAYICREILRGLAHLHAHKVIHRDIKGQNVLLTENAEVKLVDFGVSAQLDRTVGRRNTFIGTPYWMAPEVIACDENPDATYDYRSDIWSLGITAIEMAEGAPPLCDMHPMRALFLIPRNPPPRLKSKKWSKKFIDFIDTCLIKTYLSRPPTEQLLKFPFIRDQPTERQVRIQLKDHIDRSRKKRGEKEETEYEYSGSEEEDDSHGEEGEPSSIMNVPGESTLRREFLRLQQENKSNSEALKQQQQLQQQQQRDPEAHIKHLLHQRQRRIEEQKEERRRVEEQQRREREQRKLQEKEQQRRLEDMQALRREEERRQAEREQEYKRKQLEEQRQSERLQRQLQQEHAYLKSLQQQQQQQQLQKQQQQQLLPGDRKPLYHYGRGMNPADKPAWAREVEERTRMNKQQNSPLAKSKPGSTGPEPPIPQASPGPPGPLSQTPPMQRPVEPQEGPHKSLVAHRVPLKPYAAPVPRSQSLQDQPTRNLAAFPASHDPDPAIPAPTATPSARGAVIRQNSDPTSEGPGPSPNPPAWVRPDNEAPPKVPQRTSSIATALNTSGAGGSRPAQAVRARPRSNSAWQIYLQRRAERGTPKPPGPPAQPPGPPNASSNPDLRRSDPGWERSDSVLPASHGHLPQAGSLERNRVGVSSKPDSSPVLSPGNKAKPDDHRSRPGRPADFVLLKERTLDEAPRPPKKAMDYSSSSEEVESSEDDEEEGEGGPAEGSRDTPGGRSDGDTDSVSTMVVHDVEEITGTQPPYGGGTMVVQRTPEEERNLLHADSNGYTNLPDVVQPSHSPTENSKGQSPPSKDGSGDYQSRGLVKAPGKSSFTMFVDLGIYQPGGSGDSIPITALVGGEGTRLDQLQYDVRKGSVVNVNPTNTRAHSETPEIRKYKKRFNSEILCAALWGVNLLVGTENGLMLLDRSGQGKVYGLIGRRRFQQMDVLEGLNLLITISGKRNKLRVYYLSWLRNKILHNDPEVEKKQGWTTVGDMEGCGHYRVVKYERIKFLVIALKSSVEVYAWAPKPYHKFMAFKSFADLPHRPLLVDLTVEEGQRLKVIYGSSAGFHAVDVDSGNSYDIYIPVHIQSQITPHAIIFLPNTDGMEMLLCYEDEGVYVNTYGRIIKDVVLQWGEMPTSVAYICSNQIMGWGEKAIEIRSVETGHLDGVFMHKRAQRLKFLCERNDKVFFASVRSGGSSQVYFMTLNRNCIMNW

For the molecule `N=C(N)NCCC[C@@H](NC(=O)CCCCCNC(=O)Cn1cnc2c(I)c(I)c(I)c(I)c21)C(=O)N[C@H](CCCNC(=N)N)C(=O)N[C@H](CCCNC(=N)N)C(=O)N[C@H](CCCNC(=N)N)C(=O)N[C@H](CCCNC(=N)N)C(=O)N[C@H](CCCNC(=N)N)C(=O)N[C@H](CCCCN)C(N)=O` [ARC-3125, TIBI-CH2-C(=O)-Ahx-(D-Arg)6-D-Lys-NH2], the remaining activity at 1 µM in the data set with ABL was found to be 106%; with BRK it was 82 ± 41%; in the data set with BTK, 31 ± 2%; in the data set with HER4, 120 ± 9%; with MARK1, 76 ± 4%; in the data set with MARK3, 72 ± 1%. Besides, the remaining activity at 1 µM was determined as 86 ± 1% in the data set with MINK1; 6 ± 8% in the data set with MSK1; 71 ± 4% in the data set with MST4; 50 ± 2% with PAK4; 25 ± 6% with PAK5; 0% in the data set with PIM2. Besides, the remaining activity at 1 µM in the data set with PKD1 is 18 ± 4%; in the data set with TSSK1, 63 ± 6%.

For the molecule `N=C(N)NCCC[C@@H](NC(=O)CCCCCNCc1nc2c(sc3cc(Br)cnc32)c(=O)[nH]1)C(=O)N[C@H](CCCNC(=N)N)C(=O)N[C@H](CCCNC(=N)N)C(=O)N[C@H](CCCNC(=N)N)C(=O)N[C@H](CCCNC(=N)N)C(=O)N[C@H](CCCNC(=N)N)C(=O)N[C@H](CCCCN)C(N)=O` [ARC-3126, BPTP-Ahx-(D-Arg)6-D-Lys-NH2] (X3-[dR][dR][dR][dR][dR][dR][dK]-NH2), the remaining activity at 1 µM with ABL was found to be 116 ± 5%; with BRK it was 81 ± 4%; with BTK, 43 ± 2%; with HER4 it was 110 ± 5%; with MARK1 it was 94%; with MARK3 it was 112 ± 17%. The remaining activity at 1 µM worked out at 104 ± 16% in the data set with MINK1; 29 ± 1% with MSK1; 125 ± 22% with MST4; 71 ± 42% with PAK4; 89 ± 2% in the data set with PAK5; 10% with PIM2. Also, the remaining activity at 1 µM in the data set with PKD1 came out at 111 ± 10%; with TSSK1, 97 ± 16%. Besides, the “Residual activity, %” value in the data set with AMPK is 38 ± 4%; in the data set on p38 MAPK (setting [1]) it was 129 ± 10%; in the data set on p38 MAPK (setting [2]), 111 ± 4%.

Turning to `N=C(N)NCCC[C@@H](NC(=O)CNC(=O)[C@@H](CCCNC(=N)N)NC(=O)[C@@H](CCCNC(=N)N)NC(=O)CCCCCCCNCc1nc2c(sc3ccc(Br)cc32)c(=O)[nH]1)C(=O)N[C@H](CCCCN)C(N)=O` [Compound 2, BBTP-Aoc-(D-Arg)2-Gly-D-Arg-D-Lys-NH2], the remaining activity at 1 µM came out at 89 ± 5% with ABL; 114 ± 11% with BRK; 99 ± 20% with BTK; 114 ± 15% with HER4; 113 ± 1% with MARK1; 102 ± 7% with MARK3. Moreover, the remaining activity at 1 µM with MINK1 was found to be 106 ± 13%; with MSK1, 53 ± 4%; with MST4, 121 ± 8%; with PAK4, 98 ± 14%; with PAK5, 100 ± 2%; with PIM2, 7 ± 1%. For the same molecule, the results for the remaining activity at 1 µM in the data set with PKD1 and with TSSK1 were 134 ± 14% and 108%, respectively. Besides, the “Residual activity, %” value came to 91 ± 4% in the data set on AMPK, 121 ± 17% in the data set with PINK, 115 ± 0% in the data set with p38 MAPK (setting [1]) and 117 ± 1% in the data set on p38 MAPK (setting [2]).

On to `N=C(N)NCCC[C@@H](NC(=O)CNC(=O)[C@@H](CCCNC(=N)N)NC(=O)[C@@H](CCCNC(=N)N)NC(=O)Cn1cc(CNCc2nc3c(sc4ccc(Br)cc43)c(=O)[nH]2)nn1)C(=O)N[C@H](CCCCN)C(N)=O` [Compound 3, BBTP-Amt-(D-Arg)2-Gly-D-Arg-D-Lys-NH2], for which the remaining activity at 1 µM with ABL came out at 91 ± 12%; with BRK it was 114 ± 13%; with BTK, 82 ± 1%; with HER4 it was 105 ± 8%; with MARK1, 106 ± 2%; with MARK3 it was 100 ± 8%. Also, the remaining activity at 1 µM in the data set with MINK1 worked out at 133 ± 14%; with MSK1 it was 90 ± 2%; with MST4, 95 ± 32%; with PAK4, 77 ± 13%; with PAK5 it was 92 ± 5%; in the data set with PIM2 it was 15 ± 1%. Further, the remaining activity at 1 µM was 82 ± 3% in the data set with PKD1 and 100 ± 10% in the data set with TSSK1. Further, the “Residual activity, %” value in the data set on AMPK is reported as 47 ± 6%; in the data set on PINK it was 92 ± 0%; in the data set on p38 MAPK (setting [1]), 111 ± 1%; in the data set with p38 MAPK (setting [2]) it was 108 ± 8%.
